Residue numbers refer to the chain shown, from its start.

The text below walks through data of US20230192877A1 (NATIONAL INSTITUTES OF BIOMEDICAL INOVATION HEALTH AND …, published 2023).

Assay [1] concerns the target T1, tumor necrosis factor receptor 2 (TNFR2) expressed on cells (human, UniProt P20333 23-461).
T1 construct: whole, on cells; also called human TNFR2; TNFRSF1B
T1 sequence (looked up): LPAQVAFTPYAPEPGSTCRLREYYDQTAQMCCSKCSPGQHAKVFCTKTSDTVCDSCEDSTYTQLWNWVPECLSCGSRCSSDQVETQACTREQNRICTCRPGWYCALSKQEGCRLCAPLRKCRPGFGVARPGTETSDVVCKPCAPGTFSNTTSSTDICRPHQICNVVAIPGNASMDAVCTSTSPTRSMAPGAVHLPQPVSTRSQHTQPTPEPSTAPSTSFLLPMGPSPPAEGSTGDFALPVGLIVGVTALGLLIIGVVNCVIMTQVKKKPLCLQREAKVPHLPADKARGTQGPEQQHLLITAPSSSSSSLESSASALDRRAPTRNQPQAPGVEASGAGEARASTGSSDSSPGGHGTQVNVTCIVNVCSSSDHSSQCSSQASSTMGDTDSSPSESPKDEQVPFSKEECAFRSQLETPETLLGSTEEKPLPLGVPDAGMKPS
As to the kind of experiment: flow cytometry on TNFR2-expressing Ramos-Blue cells, anti-human IgG-PE. The procedure:
Subsequently, binding affinity of each antibody was evaluated using Ramos-Blue reporter cells expressing TNFR2. Each antibody was added at concentrations of 0.01, 0.1, 1, 10, 100, 1000, 10000, and 100000 ng/mL to the TNFR2-Ramos-Blue cells used in a reporter assay, and the cells were incubated for 1 hour on ice. After centrifugation for 5 minutes at 1200 rpm, the supernatant was removed. After washing once with a FACS buffer, anti-human IgG-PE was added to each well. The samples were left standing for 30 minutes away from light on ice. After centrifugation for 5 minutes at 1200 rpm, the supernatant was removed. After washing once with a FACS buffer, fluorescence was analyzed with a flow cytometer (FCM). The mean value of fluorescence intensity was used as a value corresponding to the amount of binding. Experiments were independently conducted twice under the same condition.
In general terms: A flow cytometer gives signals particle by particle.

Another assay addresses T2, TNFR2 monomeric antigen (UniProt P20333 23-257, limits assumed).
T2 construct: extracellular domain
T2 sequence (looked up): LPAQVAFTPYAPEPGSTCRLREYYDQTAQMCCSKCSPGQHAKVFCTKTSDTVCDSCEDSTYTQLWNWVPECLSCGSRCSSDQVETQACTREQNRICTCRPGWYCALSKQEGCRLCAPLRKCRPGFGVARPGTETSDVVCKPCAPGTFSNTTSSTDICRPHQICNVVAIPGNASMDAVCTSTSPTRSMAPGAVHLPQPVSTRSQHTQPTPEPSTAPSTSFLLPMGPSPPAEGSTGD
As to the kind of experiment: SPR (BIAcore T200), antibody captured with human antibody capture kit, monomeric antigen as analyte. Here is the method: Binding kinetics analysis and evaluation of each antibody to a monomeric antigen and dimeric antigen were conducted through surface plasmon resonance (SPR) using BIAcore T200 system (GE Healthcare). Monomeric and dimeric antigens were prepared. The affinity of each antibody to the monomeric and dimeric antigens was evaluated to study the presence/absence of intramolecular bridging activity. The SPR technology is based on measuring the index of refraction near the surface of a gold coated biosensor chip. A change in the index of refraction indicates a change in mass on the surface due to an interaction between an immobilized antibody and a monomeric or dimeric antigen infused into the solution. The mass increases when a molecule binds to an antibody immobilized on the surface, whereas the mass decreases when an analyte dissociates from an immobilized antibody. Analysis of a biparatopic antibody and the original monoclonal antibody by SPR can not only evaluate the performance of each antibody, but also see the effect of multivalent bond.
The monomeric and dimeric antigens were prepared as shown in the schematic diagram of FIG. 8. First, an etanercept (Pfizer), which is an Fc fusion protein of a TNFR2 extracellular region, was prepared, and a TNFR2 antigen molecule was obtained by enzymatic degradation and reductive re-oxidation reaction. An antibody was immobilized on a sensor chip using a human antibody capture kit according to the protocol by using a BIAcore T200 system (GE Healthcare). The interaction was analyzed by using the two types of antigens described above as analytes.

B1: Bp96-92 epitope region-bridging biparatopic antibody (bispecific antibody, V domains shown)
VH 1: EVQLQQSGAELVKPGASVKLSCTPSGFNIKDTYMHWVKQRPEQGLEWIGRIDPANGYTEYDPKFQDKATITADTSSNTAYLQLSSLTSEDTAVYYCADTQLYYWGQGTTLTVSS
VL 1: QIVLTQSPAIMSASLGERVTMTCTASSSVSSTYLHWYQQKPGSSPKLWIYSTSNLASGVPARFSGSGSGTSYSLTISNMEAEDAATYYCHQYHRSPLTFGAGTKLELKR
VH 2: KVQLQQSGAELVKPGASVKLSCKASGYTFTESIIHWVKQRSGQGLEWIGWFYPGSDNINYNEKFKDKATLTADKSSSTVYMELTRLTSEDSAVYFCASHEGPYVYFDYWGQGTTLTVSS
VL 2: DIVMTQSHKFMSTSVGDRVSITCKASQDVSTAVAWYQQKPGQSPKLLIYWTSTRHTGVPDRFTGSGSGTDYTLTISSVQAEDLALYYCQHHYSTPYTFGGGTKLEIQR
notes: N side Fab joined by split-intein trans-splicing to hinge and hole Fc; C side VH-CH1-hinge-knob Fc plus light chain; Human IgG1 constant regions
As for B1, the binding result (in assay [1]; in the assay with TNFR2 monomeric antigen) was “binds” in each case.

B2: Bp109-94 epitope region-bridging biparatopic antibody (bispecific antibody, V domains shown)
VH 1: QVQLKESGPGLVAPSQSLSITCTVSGFSLTVYGVNWVRQPPGKGLEWLGMIWGDGSTAYNSALKSRLTITKDNSKTQVFLKMNSLQTDDTARYYCARDGRRYALDYWGQGTSVTVSS
VL 1: DIVLTQSPTSLAVSLGQRATISCRASESVDSYGDSFLHWYQQKPGQPPILLIYRASNLDSGIPARFSGSGSRTDFTLTINPVEADDVATYYCQQSNEDPYTFGGGTKLEINR
VH 2: QVQLQQSGAELARPGTSVKLSCKASGYTFTSYWMQWVKQTPGQGLEWIGAIYPGDGDSRYIQKFKGKATLTADKSSSTAYMQLSSLASEDSAVYYCARDGNYYAMDYWGQGTSVTVSS
VL 2: B1 VL 1 with M21I, N78S, L97P
notes: as for B1
Take B2: the binding result (in assay [1]; with TNFR2 monomeric antigen) was “binds” throughout.

B3: Bp45-94 epitope region-bridging biparatopic antibody (bispecific antibody, V domains shown)
VH 1: EVQLQQSGPEMEKPGASVKISCKASGYSFTGYNMNWVKQSIGKSLEWIGKIDPYYGGTDYNLRFKDKATLTVDKSSSTAYMHLSRLTSEDSAVYYCAREPNYGSNDWYFDVWGAGTTVTVSS
VL 1: DIQVTQTTSSLSASLGDRVTISCRASQDIDNYLNWYQQRPDGTVKLLIYYTSILHSGVPSRFSGSGSRTDFSLTISSLEEEDFATYFCQQGNTLPWTFGGGTKLEFKR
VH 2: B2 VH 2
VL 2: B1 VL 1 with M21I, N78S, L97P
notes: as for B1
For B3, the binding result (in assay [1]; with TNFR2 monomeric antigen) was “binds” each time.

B4: Bp109-96 epitope region-bridging biparatopic antibody (bispecific antibody, V domains shown)
VH 1: B2 VH 1
VL 1: B2 VL 1
VH 2: B1 VH 1
VL 2: B1 VL 1
notes: as for B1
In the case of B4, the binding result (in assay [1]; with TNFR2 monomeric antigen) was “binds” throughout.

B5: Bp45-92 epitope region-bridging biparatopic antibody (bispecific antibody, V domains shown)
VH 1: B3 VH 1
VL 1: B3 VL 1
VH 2: B1 VH 2
VL 2: B1 VL 2
notes: The N side Fab (VH-CH1 plus light chain) is joined by Cfa DnaE split-intein trans-splicing to the hinge and hole Fc; The C side is VH-CH1-hinge-knob Fc plus light chain; Human IgG1 constant regions
With B5, in assay [1], the binding result is “binds”.

B6: Bp109-45 epitope region-bridging biparatopic antibody (bispecific antibody, V domains shown)
VH 1: B2 VH 1
VL 1: B2 VL 1
VH 2: B3 VH 1
VL 2: B3 VL 1
notes: as for B1
As for B6, the binding result (in assay [1]; with TNFR2 monomeric antigen) was “binds” throughout.
